Results on 9 sequences are retold here after the DeepSol protein solubility set.

This data set in a line: soluble on expression in E. coli; label from the status in PepcDB or PDB records.
As to “MSFLSIPINEKSLSFIKNNFQAQIQALEQFYPIIKNALNLGLNPSSIKFGGGTALSMYYFQHRLSFDMDLFVNDAQCLGFFSPKLWIDNCSHFDSTRYIDQHNHIGVTNKDNIKIDVLVDYASNEGYVDNSKKIFAFDIYIESLENIIAKKITFRKTDNKTRDIFDIAVALHNDNNLFDKLLSSQKITKQDLLTLQNSLQELDKKRYSIEIDMVEPISHYKDLSLSAYDFLIDKIDQIKTATYSNSHDNADDLDNSNEYTPTPKRRR”, the “soluble on expression in E. coli” value was “not soluble”.
Under “WILASTTEGAPSVAPLNVTVFLNESSDNVDIRWMKPPTKQQDGELVGYRISHVWQSAGISKELLEEVGQNGSRARISVQVHNATCTVRIAAVTRGGVGPFSDPVKIFIPAH” stands “soluble”; under “IQKMANSFQKLASSVVLFETEINEFLVLFTDTKNKREESEPVRQVSTTQEYHQVTLDQQHYFNHKLSDYFRLFKDKTFFFEII”, “not soluble”.
The entry for “GPGSMLKCSLCYLASKVTAGNAKNQAGHPRRRAKLFHVVPGTPVTPFEKLKEQRRRFGQDRHSRLPEYRPGNNVRMDPNTYTLYATKKGVMTIRESRINPKYKWLDVEPDIQKVYRSRELRRALQEREMASMAVGENSNYRVELDLLLEPDWRERVMHVPKATERFKDPNLFTRGVVNELSPLDRYSYT” is “not soluble”; for “NYKREIKQVENYLSARRESGHFIGKENIDIYYEKYVIPNSKNSIVISHGFRESMVKYNETIYYFLKNGYSVYGLEHRGHARSGRLGKDSTQTSVDNFDYYVDDFKKYVDTIVEPDNRGKNLFLYAHSMGGAIGGLFLERYPKYFKAAVLSSPMFEVDTGRYPEFLSRAVASVFNFVNLGDTYAPGHHEYSCESDFENSCTTSNIRYDYYLDKTNKSRKIENGGASFKWVKESLKATDEVTDGKNASKVTIPVLLFQAENDDIVRPGGQDKFAKEAKKCKLIVIKNSKHEIYREKDSIMVPYFNKVFTFLNNNK” it is “not soluble”; for “MTVQIENEFLIATFAEEGAELVSLQSKETGIEYIWQGNPEFWARHAPVLFPIVGRLKEDTYMYQNQAYHLTQHGFARDQVFDVIEKGGEEVSFSLKSTKETKKKYPFDFELVITYTLEHQELTVNYQVEYTGKEEMYFGIGGHPAFNVPLESSLTFEDYYLSFSPKKSRTQIPLAGPFIDLANKTLAQTNTSFDLTHQLFENDAMIFETKGQTAITIATDESDHQVTLSYPEMPFVGIWSPTPKEAPFVCIEPWCGIADAVDATGQLAEKFGINKLPANELFKTQYMISVKLEHHHHHH” it is “not soluble”.
The entry for “MIEFRDVWFWYQEGKTVLKSISFSFSEGTLAIVGPNGSGKTTLVKMLNGLLKPKKGNVLIDGINTKEVSVAELSRIVGYVFQNPDAMFFEENVFKEVAFGPKNLGLNEEEVKKRVRWALEAVGLRGFENRNPFELSGGEKQRLAIACILAMKPKYLVLDEPNTGLDERGLQDLINVIKNLRREGSSIILVTHDIELVLEVADKVLLLKDGELKFFGSTKEFFELDLEGFGLKEPELVKISKDVGINFVRNVEELLKVIGL” is “soluble”; for “MGSDKIHHHHHHMMYKHVALLVRQDDMSHEEFVDYWQANHTPIAKDIEGVVRYQQVLPTEPAHAEFDGLAELYFETLEDLHEALGSPGSRDYDPTKEIAAKAREDVNNFLAVEERPRIIGEEIVQKDEVDGDTDGLYKHSAFLVRQDDMTHEEFVDYWQTNHTPIAREIEGVVKYNTVIPTDPENAEFDGVAELYFDDIEKLYDALGSEGLRDYAPDRGKAKAAREDVNNFLAIDERPRFIGQEQLVKDEG” it is “not soluble”; for “MAHHHHHHMEPDDGVASWMELREEGNKAFKSEAYANAVKLYSEAIKLNSKEAALFSNRSAAYIKMKEYQKAVLDAEAAIANDKTFVKGYSRLHNALCHLGRFREATQKLKEALVVLEACGASPEDKKQIQELHRTAEEGQRGFEAGQRLLEERNFLAAERELVKAAQLFPDCAIVGIMLGESQASLYPERVIRSLTALSSAHADDTYYLYVRALASYYSGQSGLNNAQSILRHTIELDPDNRKATELLKKIRAVESQKTEGNAAFKEKRFTAAVNCYKAAIEVDPSNIRMTAVLRGNQAAAKMELKEYSSALLDCDFAIKNGAESAKLYARRSRIHEALENYDDALRDIQRAAEMDPSYNGEAQQMKISAKRAKRKDYYKILGLPQGESDDSSIKRAYKKGCLQWHPDKWAHATEEEKAHAEKMFKEVGEAFSILSDPQKKRLYDSGQLDDASSPGGTSDFPARQADIFQMMNMMFQGGCGEGGMPSGFSFTVDPRSRRQKQTFHYR” it is “soluble”.
